{"source": "FireProtDB (doi:10.1006/jmbi.1997.1365)", "parents": {"B1": {"name": "Lysozyme C, P61626 (parent)", "chain": "MKALIVLGLVLLSVTVQGKVFERCELARTLKRLGMDGYRGISLANWMCLAKWESGYNTRATNYNAGDRSTDYGIFQINSRYWCNDGKTPGAVNACHLSCSALLQDNIADAVACAKRVVRDPQGIRAWVAWRNRCQNRDVRQYVQGCGV"}}, "note": "“And” between values parts separate entries of the source, which are not always exact repeats. Identical values can stand only once."}
{"variants_of": "B1", "conditions": "Homo sapiens; pH 2.49; Thermal; DSC; glycine 0.05 M; reversible: yes; structure 1LZ1; whole UniProt chain shown", "units": {"Tm": "°C", "heat capacity change of unfolding": "kcal/mol/K", "unfolding enthalpy (calorimetric)": "kcal/mol", "unfolding enthalpy (van 't Hoff)": "kcal/mol"}}
{"variant": "I77G", "Tm": 48.1, "heat capacity change of unfolding": 0.79, "unfolding enthalpy (calorimetric)": 84.4, "unfolding enthalpy (van 't Hoff)": 89.7}
{"variant": "I77A", "Tm": 55.9, "heat capacity change of unfolding": 0.84, "unfolding enthalpy (calorimetric)": 101, "unfolding enthalpy (van 't Hoff)": 108}
{"variants_of": "B1", "conditions": "Homo sapiens; pH 2.7; 64.9 °C; Thermal; DSC; glycine 0.05 M; reversible: yes; structure 1LZ1; whole UniProt chain shown", "units": {"ddG of mutation (higher = less stable)": "kcal/mol", "heat capacity change of unfolding": "kcal/mol/K", "unfolding enthalpy (calorimetric)": "kcal/mol", "unfolding enthalpy (van 't Hoff)": "kcal/mol"}}
{"variant": "I77G", "ddG of mutation (higher = less stable)": 3.83, "heat capacity change of unfolding": 1.24, "unfolding enthalpy (calorimetric)": 106, "unfolding enthalpy (van 't Hoff)": 110}
{"variant": "I77A", "ddG of mutation (higher = less stable)": 1.72, "heat capacity change of unfolding": 1.46, "unfolding enthalpy (calorimetric)": 115, "unfolding enthalpy (van 't Hoff)": 121}
{"variant": "I74A", "ddG of mutation (higher = less stable)": 3.71, "heat capacity change of unfolding": 1.34, "unfolding enthalpy (calorimetric)": 105, "unfolding enthalpy (van 't Hoff)": 111}
{"variant": "I107A", "ddG of mutation (higher = less stable)": 2.7, "heat capacity change of unfolding": 1.65, "unfolding enthalpy (calorimetric)": 110, "unfolding enthalpy (van 't Hoff)": 113}
{"variant": "I124A", "ddG of mutation (higher = less stable)": 0.93, "heat capacity change of unfolding": 1.34, "unfolding enthalpy (calorimetric)": 106, "unfolding enthalpy (van 't Hoff)": 112}
{"variant": "I41A", "ddG of mutation (higher = less stable)": 2.54, "heat capacity change of unfolding": 1.2, "unfolding enthalpy (calorimetric)": 109, "unfolding enthalpy (van 't Hoff)": 116}
{"variants_of": "B1", "conditions": "Homo sapiens; pH 2.7; Thermal; DSC; glycine 0.05 M; reversible: yes; structure 1LZ1; whole UniProt chain shown", "units": {"change of melting temperature, mutant - wild type (higher = more stable)": "°C", "unfolding enthalpy (calorimetric)": "kcal/mol", "unfolding enthalpy (van 't Hoff)": "kcal/mol"}}
{"variant": "I77G", "Tm": "52 °C and 52.2 °C", "change of melting temperature, mutant - wild type (higher = more stable)": -12.7, "heat capacity change of unfolding": "0.62 kcal/mol/K and 1.24 kcal/mol/K", "unfolding enthalpy (calorimetric)": 90.9, "unfolding enthalpy (van 't Hoff)": 92.8}
{"variant": "I77A", "Tm": "59.7 °C", "change of melting temperature, mutant - wild type (higher = more stable)": -5.2, "heat capacity change of unfolding": "1.46 kcal/mol/K"}
{"variant": "I107A", "Tm": "56.2 °C", "change of melting temperature, mutant - wild type (higher = more stable)": -8.7, "heat capacity change of unfolding": "1.65 kcal/mol/K"}
{"variant": "I124A", "Tm": "61.9 °C", "change of melting temperature, mutant - wild type (higher = more stable)": -3, "heat capacity change of unfolding": "1.34 kcal/mol/K"}
{"variant": "I41A", "Tm": "56.8 °C", "change of melting temperature, mutant - wild type (higher = more stable)": -8.1, "heat capacity change of unfolding": "1.2 kcal/mol/K"}
{"variants_of": "B1", "conditions": "Homo sapiens; pH 2.82; Thermal; DSC; glycine 0.05 M; reversible: yes; structure 1LZ1; whole UniProt chain shown", "units": {"Tm": "°C", "heat capacity change of unfolding": "kcal/mol/K", "unfolding enthalpy (calorimetric)": "kcal/mol", "unfolding enthalpy (van 't Hoff)": "kcal/mol"}}
{"variant": "I77G", "Tm": 54.6, "heat capacity change of unfolding": 0.65, "unfolding enthalpy (calorimetric)": 94.7, "unfolding enthalpy (van 't Hoff)": 97.6}
{"variants_of": "B1", "conditions": "Homo sapiens; pH 3.02; Thermal; DSC; glycine 0.05 M; reversible: yes; structure 1LZ1; whole UniProt chain shown", "units": {"Tm": "°C", "heat capacity change of unfolding": "kcal/mol/K", "unfolding enthalpy (calorimetric)": "kcal/mol", "unfolding enthalpy (van 't Hoff)": "kcal/mol"}}
{"variant": "I77G", "Tm": 59.2, "heat capacity change of unfolding": 0.86, "unfolding enthalpy (calorimetric)": 98.6, "unfolding enthalpy (van 't Hoff)": 100}
{"variants_of": "B1", "conditions": "Homo sapiens; pH 3.16; Thermal; DSC; glycine 0.05 M; reversible: yes; structure 1LZ1; whole UniProt chain shown", "units": {"Tm": "°C", "heat capacity change of unfolding": "kcal/mol/K", "unfolding enthalpy (calorimetric)": "kcal/mol", "unfolding enthalpy (van 't Hoff)": "kcal/mol"}}
{"variant": "I77G", "Tm": 60.4, "heat capacity change of unfolding": 0.81, "unfolding enthalpy (calorimetric)": 100, "unfolding enthalpy (van 't Hoff)": 102}
{"variants_of": "B1", "conditions": "Homo sapiens; pH 2.66; Thermal; DSC; glycine 0.05 M; reversible: yes; structure 1LZ1; whole UniProt chain shown", "units": {"Tm": "°C", "heat capacity change of unfolding": "kcal/mol/K", "unfolding enthalpy (calorimetric)": "kcal/mol", "unfolding enthalpy (van 't Hoff)": "kcal/mol"}}
{"variant": "I77A", "Tm": 59.1, "heat capacity change of unfolding": 1.2, "unfolding enthalpy (calorimetric)": 106, "unfolding enthalpy (van 't Hoff)": 114}
{"variant": "I107A", "Tm": 55.4, "heat capacity change of unfolding": 1.39, "unfolding enthalpy (calorimetric)": 93.1, "unfolding enthalpy (van 't Hoff)": 98.1}
{"variants_of": "B1", "conditions": "Homo sapiens; pH 2.8; Thermal; DSC; glycine 0.05 M; reversible: yes; structure 1LZ1; whole UniProt chain shown", "units": {"Tm": "°C", "heat capacity change of unfolding": "kcal/mol/K", "unfolding enthalpy (calorimetric)": "kcal/mol", "unfolding enthalpy (van 't Hoff)": "kcal/mol"}}
{"variant": "I77A", "Tm": 61.5, "heat capacity change of unfolding": 1.2, "unfolding enthalpy (calorimetric)": 110, "unfolding enthalpy (van 't Hoff)": 115}
{"variant": "I107A", "Tm": 57.7, "heat capacity change of unfolding": 1.08, "unfolding enthalpy (calorimetric)": 97.8, "unfolding enthalpy (van 't Hoff)": 103}
{"variant": "I124A", "Tm": 64.1, "heat capacity change of unfolding": 0.98, "unfolding enthalpy (calorimetric)": 104, "unfolding enthalpy (van 't Hoff)": 111}
{"variants_of": "B1", "conditions": "Homo sapiens; pH 2.98; Thermal; DSC; glycine 0.05 M; reversible: yes; structure 1LZ1; whole UniProt chain shown", "units": {"Tm": "°C", "heat capacity change of unfolding": "kcal/mol/K", "unfolding enthalpy (calorimetric)": "kcal/mol", "unfolding enthalpy (van 't Hoff)": "kcal/mol"}}
{"variant": "I77A", "Tm": 64.5, "heat capacity change of unfolding": 1.63, "unfolding enthalpy (calorimetric)": 115, "unfolding enthalpy (van 't Hoff)": 120}
{"variants_of": "B1", "conditions": "Homo sapiens; pH 2.5; Thermal; DSC; glycine 0.05 M; reversible: yes; structure 1LZ1; whole UniProt chain shown", "units": {"Tm": "°C", "heat capacity change of unfolding": "kcal/mol/K", "unfolding enthalpy (calorimetric)": "kcal/mol", "unfolding enthalpy (van 't Hoff)": "kcal/mol"}}
{"variant": "I74A", "Tm": 48.2, "heat capacity change of unfolding": 1.22, "unfolding enthalpy (calorimetric)": 82.8, "unfolding enthalpy (van 't Hoff)": 84}
{"variant": "I107A", "Tm": 52.6, "heat capacity change of unfolding": 1.72, "unfolding enthalpy (calorimetric)": 89.5, "unfolding enthalpy (van 't Hoff)": 95.5}
{"variants_of": "B1", "conditions": "Homo sapiens; pH 2.67; Thermal; DSC; glycine 0.05 M; reversible: yes; structure 1LZ1; whole UniProt chain shown", "units": {"Tm": "°C", "heat capacity change of unfolding": "kcal/mol/K", "unfolding enthalpy (calorimetric)": "kcal/mol", "unfolding enthalpy (van 't Hoff)": "kcal/mol"}}
{"variant": "I74A", "Tm": 52.3, "heat capacity change of unfolding": 1.53, "unfolding enthalpy (calorimetric)": 89, "unfolding enthalpy (van 't Hoff)": 91.4}
{"variant": "I41A", "Tm": 56.2, "heat capacity change of unfolding": 1.51, "unfolding enthalpy (calorimetric)": 98.1, "unfolding enthalpy (van 't Hoff)": 103}
{"variants_of": "B1", "conditions": "Homo sapiens; pH 2.81; Thermal; DSC; glycine 0.05 M; reversible: yes; structure 1LZ1; whole UniProt chain shown", "units": {"Tm": "°C", "heat capacity change of unfolding": "kcal/mol/K", "unfolding enthalpy (calorimetric)": "kcal/mol", "unfolding enthalpy (van 't Hoff)": "kcal/mol"}}
{"variant": "I74A", "Tm": 54.2, "heat capacity change of unfolding": 1.46, "unfolding enthalpy (calorimetric)": 90.7, "unfolding enthalpy (van 't Hoff)": 92.1}
{"variants_of": "B1", "conditions": "Homo sapiens; pH 2.96; Thermal; DSC; glycine 0.05 M; reversible: yes; structure 1LZ1; whole UniProt chain shown", "units": {"Tm": "°C", "heat capacity change of unfolding": "kcal/mol/K", "unfolding enthalpy (calorimetric)": "kcal/mol", "unfolding enthalpy (van 't Hoff)": "kcal/mol"}}
{"variant": "I74A", "Tm": 58.5, "heat capacity change of unfolding": 1.6, "unfolding enthalpy (calorimetric)": 96.9, "unfolding enthalpy (van 't Hoff)": 102}
{"variant": "I124A", "Tm": 67.4, "heat capacity change of unfolding": 1.17, "unfolding enthalpy (calorimetric)": 109, "unfolding enthalpy (van 't Hoff)": 114}
{"variant": "I41A", "Tm": 62, "heat capacity change of unfolding": 1.08, "unfolding enthalpy (calorimetric)": 105, "unfolding enthalpy (van 't Hoff)": 111}
{"variants_of": "B1", "conditions": "Homo sapiens; pH 3.08; Thermal; DSC; glycine 0.05 M; reversible: yes; structure 1LZ1; whole UniProt chain shown", "units": {"Tm": "°C", "heat capacity change of unfolding": "kcal/mol/K", "unfolding enthalpy (calorimetric)": "kcal/mol", "unfolding enthalpy (van 't Hoff)": "kcal/mol"}}
{"variant": "I74A", "Tm": 60.2, "heat capacity change of unfolding": 1.44, "unfolding enthalpy (calorimetric)": 98.8, "unfolding enthalpy (van 't Hoff)": 102}
{"variants_of": "B1", "conditions": "Homo sapiens; pH 2.95; Thermal; DSC; glycine 0.05 M; reversible: yes; structure 1LZ1; whole UniProt chain shown", "units": {"Tm": "°C", "heat capacity change of unfolding": "kcal/mol/K", "unfolding enthalpy (calorimetric)": "kcal/mol", "unfolding enthalpy (van 't Hoff)": "kcal/mol"}}
{"variant": "I107A", "Tm": 61.1, "heat capacity change of unfolding": 1.67, "unfolding enthalpy (calorimetric)": 103, "unfolding enthalpy (van 't Hoff)": 108}
{"variants_of": "B1", "conditions": "Homo sapiens; pH 3.09; Thermal; DSC; glycine 0.05 M; reversible: yes; structure 1LZ1; whole UniProt chain shown", "units": {"Tm": "°C", "heat capacity change of unfolding": "kcal/mol/K", "unfolding enthalpy (calorimetric)": "kcal/mol", "unfolding enthalpy (van 't Hoff)": "kcal/mol"}}
{"variant": "I107A", "Tm": 62.9, "heat capacity change of unfolding": 1.51, "unfolding enthalpy (calorimetric)": 106, "unfolding enthalpy (van 't Hoff)": 110}
{"variants_of": "B1", "conditions": "Homo sapiens; pH 2.51; Thermal; DSC; glycine 0.05 M; reversible: yes; structure 1LZ1; whole UniProt chain shown", "units": {"Tm": "°C", "heat capacity change of unfolding": "kcal/mol/K", "unfolding enthalpy (calorimetric)": "kcal/mol", "unfolding enthalpy (van 't Hoff)": "kcal/mol"}}
{"variant": "I124A", "Tm": 57.7, "heat capacity change of unfolding": 1.15, "unfolding enthalpy (calorimetric)": 96.4, "unfolding enthalpy (van 't Hoff)": 102}
{"variants_of": "B1", "conditions": "Homo sapiens; pH 3.1; Thermal; DSC; glycine 0.05 M; reversible: yes; structure 1LZ1; whole UniProt chain shown", "units": {"Tm": "°C", "heat capacity change of unfolding": "kcal/mol/K", "unfolding enthalpy (calorimetric)": "kcal/mol", "unfolding enthalpy (van 't Hoff)": "kcal/mol"}}
{"variant": "I124A", "Tm": 69.7, "heat capacity change of unfolding": 1.58, "unfolding enthalpy (calorimetric)": 112, "unfolding enthalpy (van 't Hoff)": 119}
{"variants_of": "B1", "conditions": "Homo sapiens; pH 2.73; Thermal; DSC; glycine 0.05 M; reversible: yes; structure 1LZ1; whole UniProt chain shown", "units": {"Tm": "°C"}}
{"variant": "I74G", "Tm": 62.7}
